Test results as given in patent publication US11918645B2, “Vaccines against hepatitis B virus” (priority 2012, dated 2024).

Columns and labels:
HLA-A*0201 = HLA-A*0201 (Homo sapiens, UniProt P04439, D140Y/D185E/D98H/E176V/E277Q/G131W/G231S/I119V/I121R/I166T/I218V/L300P/L318F/N151K/N90K/P208A/P217A/Q86G/Q94H/R138H/R169H/T345S); assay: ProImmune REVEAL MHC class I binding assay of nonamers; details: score as % of positive control peptide
From the text: (§1) The number of HLA class I binding registers contained in each peptide may be determined by determining the ability of the peptide to bind to a range of frequently occurring HLA class I molecules. HLA class I binding may be measured using the ProImmune REVEAL® MHC-peptide Binding Assay (ProImmune Ltd, Oxford, UK). The REVEAL™ MHC peptide-binding assay measures the ability of each peptide to stabilize the ternary MHC-peptide complex for […], HLA-A*0201, HLA¬A*0301, HLA-A*2402, HLA-B*0702, HLA-B*0801, HLA-B*3501 representative of main HLA class I supertypes. Each tested peptide is given a score relative to a pass/fail control peptide and also compared to a positive control peptide.
(§2) Detection is based on the presence or absence of the native conformation of the MHC-peptide complex. The highly frequent HLA class I alleles (HLA-A*0201, A*0301, A*1101, A*2402, B*0702, B*0801, and B*3501) were selected. Binding to MHC molecules was compared to that of a known T-cell epitope, a positive control peptide, with very strong binding properties. […] The score of the test peptide is reported quantitatively as a percentage of the signal generated by the positive control peptide, and the peptide is indicated as having a putative pass or fail result. Good binders are considered to be those peptides with scores 45% of the positive control as defined by ProImmune.

HLA-A*0301 = target: T1, HLA-A*0301 (Homo sapiens, UniProt P04439); assay: as above; details: score as % of positive control peptide
T1 construct: purchased ProImmune
From the text: as §1, §2

HLA-A*1101 = target: T2, HLA-A*1101 (Homo sapiens, UniProt P04439, A114D/D185E/E176A/F33Y/L180Q/S129P/T187R); assay: as above; details: score as % of positive control peptide
T2 construct: purchased ProImmune
From the text: as §1, §2

HLA-A*2402 = HLA-A*2402 (Homo sapiens, UniProt P04439, D101N/D140Y/D185E/E176V/E190D/F33S/G103R/G107R/I119L/I121M/I306V/K335N/L105A/L180Q/L300P/N151K/N90K/Q86E/Q94H/R106L/R138H/R89G/T104I/T345S/V100E/W191G/Y123F); assay: as above; details: score as % of positive control peptide
From the text: as §1, §2

HLA-B*0702 = target: T3, HLA-B*0702 (Homo sapiens, UniProt P01889); assay: as above; details: score as % of positive control peptide
T3 construct: purchased ProImmune
From the text: as §1, §2

HLA-B*0801 = HLA-B*0801 (Homo sapiens, UniProt P01889, A93T/A95T/D138N/E176V/E187T/K202T/Q94N/R180D/S35A/V36M/Y33D/Y91F); assay: as above; details: score as % of positive control peptide
From the text: as §1, §2

HLA-B*3501 = HLA-B*3501 (Homo sapiens, UniProt P01889, A329T/A93T/A95T/C349S/D201E/D98Y/E176V/E187L/E204Q/E69T/I218V/K202T/L119I/Q94N/R155S/R180L/S121R/S35A/S48A/T118I/V127L/V306I/V36M/Y140S/Y91F); assay: as above; details: score as % of positive control peptide
From the text: as §1, §2

HLA class I alleles = assay: ProImmune REVEAL MHC class I binding assay, summary over the seven alleles; parameters: species or system human; details: for Number of allele (b): number of class I alleles for which positive binding was detected; for Number of HLA binders (a): total number binding epitopes detected for each long peptide, seven class I alleles
From the text: as §1, §2

[1] = system: HLA-DR1 (α1*01:01;β1*01:01); assay: ProImmune REVEAL MHC class II binding assay of long peptides; parameters: species or system human; details: percentage of the signal of the positive control peptide; positive binding score >=15%
From the text: (§3) The highly frequent HLA class II alleles HLA-DR1 (α1*01:01;β1*01:01), HLA-DR15 (α1*01:01;β1*15:01), HLA-DR3 (α1*01:01;β1*03:01), HLA-DR4 (α1*01:01;β1*04:01), HLA-DR11 (α1*01:01;β1*11:01), HLA-DR13 (α1*01:01;β1*13:01), and HLA-DR7 (α1*01:01;β1*07:01) were selected. Each peptide was given a score relative to the positive control peptide, which is a known T-cell epitope. The score of the test peptide is reported quantitatively as a percentage of the signal generated by the positive control peptide, and the peptide is indicated as having a putative pass or fail result. Good binders are considered to be those peptides with scores >=15% of the positive control as defined by Proimmune.

[2] = system: HLA-DR3 (α1*01:01;β1*03:0); assay: as above; parameters: species or system human; details: percentage of the signal of the positive control peptide; positive binding score >=15%
From the text: as §3

[3] = target: T4, HLA-DR15 (α1*01:01;β1*15:01) (Homo sapiens, UniProt P01903+P01911); assay: as above; details: percentage of the signal of the positive control peptide; positive binding score >=15%
T4 construct: purchased ProImmune
From the text: as §3

[4] = target: T5, HLA-DR7 (α1*01:01;β1*07:01) (Homo sapiens, UniProt P01903+P01911, A100R/A102G/A103Q/D57E/D86V/E43K/F76Y/K127E/L162R/M171V/P40G/Q125H/Q99D/R195Q/R33Q/R42Y/R54Q/S133A/S149N/S66F/T210M/V115G/Y107V/Y59L/Y89S); assay: as above; details: percentage of the signal of the positive control peptide; positive binding score >=15%
T5 construct: purchased ProImmune
From the text: as §3

[5] = target: T6, HLA-DR13 (α1*01:01;β1*13:01) (Homo sapiens, UniProt P01903+P01911, A100E/A169T/K41T/L162R/M171V/P40S/Q125H/Q178H/Q39Y/Q99D/R42S/S66N/W38E/Y61H); assay: as above; details: percentage of the signal of the positive control peptide; positive binding score >=15%
T6 construct: purchased ProImmune
T6 sequence (P01903 26-216, other chains not shown): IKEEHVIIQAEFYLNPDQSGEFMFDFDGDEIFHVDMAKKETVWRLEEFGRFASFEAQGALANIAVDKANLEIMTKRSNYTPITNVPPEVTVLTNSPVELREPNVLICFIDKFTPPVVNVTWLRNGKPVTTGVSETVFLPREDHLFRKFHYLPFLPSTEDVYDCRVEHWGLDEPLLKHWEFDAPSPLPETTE
From the text: The highly frequent HLA class II alleles HLA-DR1 (α1*01:01;β1*01:01), HLA-DR15 (α1*01:01;β1*15:01), HLA-DR3 (α1*01:01;β1*03:01), HLA-DR4 (α1*01:01;β1*04:01), HLA-DR11 (α1*01:01;β1*11:01), HLA-DR13 (α1*01:01;β1*13:01), and HLA-DR7 (α1*01:01;β1*07:01) were selected. Each peptide was given a score relative to the positive control peptide, which is a known T-cell epitope.

HLA class II alleles = assay: ProImmune REVEAL MHC class II binding assay, summary over the seven alleles; parameters: species or system human; details: number of class II alleles for which positive binding (score >=15%) was detected
From the text: as §3

[6] = system: PBMC from chronic HBV-infected subjects; assay: IFNγ ELISpot of PBMC restimulated with individual unconjugated HBV long peptides (Example 5); assay type: cell-based, human; details: for T cell responses (IFNγ ELISpot), level and frequency of responders: HBeAg-negative inactive carriers and HBeAg-negative treated subjects, 5 μg/mL, 18 h, FIGS. 9 and 10; for T cell responses (IFNγ ELISpot) grouped by infecting HBV genotype: genotypes A, B, C & D, FIG. 11; for T cell responses (IFNγ ELISpot) grouped by ethnic background: three ethnic groups, FIG. 12
Procedure: One vial of PBMC from each subject (containing 1×10^7 cells) was thawed and lymphocyte numbers were determined using a Scepter™ automated handheld cell counter. PBMC were cultured in 2 mL culture medium (CM: RPMI-1640 Glutamax supplemented with 5% human AB serum) in 24 well cell culture plates at a concentration of 1×10^6 cells/mL for a total of 11 days. Cells were stimulated with a mixture of the nine HBV-derived long peptides described in Example 3.
Each peptide was used at a final concentration of 1 μg/peptide/mL. On Day 4, IL-2 and IL-15 were added to the cultures to final concentrations of 10 IU/mL and 10 ng/mL respectively. On Day 10, cells were washed twice in CM and cultured with 10 IU/mL IL-2 for 1 additional day. On Day 11, cells were washed twice in CM, counted and incorporated in a human IFNγ (interferon-gamma) ELISpot assay or intracellular cytokine staining.
Cells from short term cultures were plated in triplicate wells at 5×10^4 PBMC/well. Final antigen concentrations used were: 5 μg/mL for each individual peptides; PHA positive control: 1 μg/mL.

BALB/c mice = assay: Immunogenicity in mice, IFNγ ELISpot of splenocytes, FP02.1 vs NP02.1 (Example 6); assay type: in vivo; details: mice immunised with FP02.1 or NP02.1, restimulation 5 μg/mL/peptide, FIG. 15
Procedure: The immunogenicity in mice of FP02.1 (containing nine fluorocarbon-conjugated peptides) was compared to NP02.1 (containing nine equivalent unconjugated peptides).
Alternatively, splenocytes were stimulated in vitro with 5 μg/mL/peptide of nine individual peptides for 18 hours in an ELISpot assay. The number of IFNγ+ spot forming cells (SFC) was counted. Plates then were washed with PBS, incubated with an IFNγ detection peroxidase-labelled antibody, followed by a substrate, according to the manufacturer's instructions.

Row | Substance | Number of nonamers having a binding score >= 45%, HLA-A*0201 (HLA-A*0201) | Number of nonamers having a binding score >= 45%, HLA-A*0301 (HLA-A*0301) | Number of nonamers having a binding score >= 45%, HLA-A*1101 (HLA-A*1101) | Number of nonamers having a binding score >= 45%, HLA-A*2402 (HLA-A*2402) | Number of nonamers having a binding score >= 45%, HLA-B*0702 (HLA-B*0702) | Number of nonamers having a binding score >= 45%, HLA-B*0801 (HLA-B*0801) | Number of nonamers having a binding score >= 45%, HLA-B*3501 (HLA-B*3501) | Number of allele (b) (HLA class I alleles) | Number of HLA binders (a) (HLA class I alleles) | binding score, HLA-DR1 (α1*01:01;β1*01:01) [1] [%] | binding score, HLA-DR3 (α1*01:01;β1*03:0) [2] [%] | binding score, HLA-DR15 (α1*01:01;β1*15:01) [3] [%] | binding score, HLA-DR7 (α1*01:01;β1*07:01) [4] [%] | binding score, HLA-DR13 (α1*01:01;β1*13:01) [5] [%] | Number of allele (a) (HLA class II alleles) | T cell responses (IFNγ ELISpot), level and frequency of responders [6] | T cell responses (IFNγ ELISpot) grouped by infecting HBV genotype [6] | T cell responses (IFNγ ELISpot) grouped by ethnic background [6] | IFNγ response of splenocytes to each individual peptide component (BALB/c mice) | IFNγ response of splenocytes to each individual peptide component (BALB/c mice; listed as P376)
1 | NP277(K): unconjugated HBV long peptide, polymerase 260-293 + KKK (RVSWPKFAVPNLQSLTNLLSSNLSWLSLDVSAAFYHKKK; HBV CONSENSUS SEQUENCE) | 6 | 0 | 0 | 5 | 3 | 1 | 3 | 5 | 18 | 0.49 | 0.10 | 0.18 | 0.01 | 0.00 | 1 |  |  |  |  | 
2 | NP797(K): unconjugated HBV long peptide, core 780-814 (C to S at 792) + KKK | 6 | 1 | 1 | 5 | 4 | 3 | 2 | 7 | 22 | 0.20 | 0.00 | 1.14 | 0.01 | 0.00 | 0 | highest level of responses in both patient populations and in the highest proportion of subjects | highest responses across all four genotypes A, B, C & D | highest responses across all three ethnic groups |  | 
3 | NP376: unconjugated HBV long peptide, polymerase 359-398 (C to S substitution at 393) (KLHLYSHPIILGFRKIPMGVGLSPFLLAQFTSAISSVVRR; HBV CONSENSUS SEQUENCE) | 8 | 0 | 1 | 10 | 4 | 6 | 6 | 6 | 35 | 27.71 | 0.00 | 6.29 |  | 0.00 |  | highest level of responses in both patient populations and in the highest proportion of subjects | highest responses across all four genotypes A, B, C & D | highest responses across all three ethnic groups | immune responses were dominated by four out of the 9 peptides contained in the vaccine | only observed with the formulation containing the fluorocarbon-conjugated peptides
